Reference: the DeepSol protein solubility set

Experiment: soluble on expression in E. coli; label from the status in PepcDB or PDB records

Row | Sequence | soluble on expression in E. coli
1 | MGSDKIHHHHHHMFTMICPVCEKSVNDMQGLALHFRSGSIHGDGKHASWISAEQIEHGISDSDLSDVLIRIFRPEESLIRWARMEFIAKFYAHPHPFMEAMQKPTVPVLLGYVIEHRFFLKNWIRTLSMVIHSTTSDDAFEYEVENVATEYIGLNGKPSHLELLLRMGEALGMSRKRIMEYSPLPETSQAIEVWYGISNRYSWIDTMGAMHVLELVADRTLVDDGSPIHYFNPEILKGSDYPEAVKNFLMEGYEADVGHAGEALKIVQAATMDDLTTRSIMLRSMDAFYVYLNARMRRARMLEASWGE | not soluble
2 | MTETRKKPDPIDVYVGTRIRLRRNILGLTQEKLGEKLGITFQQIQKYEKGTNRIGASRLQAIAEIMDVPVSYFFDKGVGTQQVEGFAESDNDFMDFCSSSEGIQLMRAFTNISDSKVRRKIIDLAKALSEEEDLTNKL | not soluble
3 | MNTSTTKPFAWPAHVFKEYDIRGRAGEELDESFAYWLGRAFADMMQKEGEKRAVVGHDNRLSSPGLHRALKDGLLDGGCDVVDIGLSTTPMFYYSLYYTNIPCGMIITASHNPGDENGFKIAMGKTTIYGERIQALRRAMERLSQEQPRPETARGREETLDLAPAYIKMLKEKIQLGPRKLKVVVDCGNGTPSIIAPQVLKEWGCDVVPLYCESDPTFPNHHPDPVVPENLTALIEMVRKEQADLGIAFDGDGDRIGVVDETGAIRWGDQLMVLFWREILKRYPGADAPVEVKCSQALVEEIERLGGKPFFHRTGHSHVKATLRRRPEIPFAGEMSGHLFFNDEFYGYDDALYAAGRLLRLLSHDERPLSEWFADVPRYAATPETRVACPEEKKPAAIAAVKNQFAGRYPVVDVDGARIQFPEGWGLVRPSNTQPILVLRAEAKTEEALAEIKRQLADCLHALELCIDW | soluble
4 | MTPTLETKYVFTITARIGDVTSAGEIGTGVRRIIPILGGEVKGEGISGQVLPFGADFQIIRPNELIELEAKYAFETDDGAVVYVENVGIRFGPVELLRKLKRGEPVDPKVIYFRTRPRFETGHPNYQWLMQYLFVGSAARHADRVVIDVHQVL | soluble
5 | MRYSFVIQWDFETVYTGVNSTTNLAFSVKAMTTNFANLQELQDSLVLRGQNLTTQLFWKPTVKRLVLGNNNDLTTVAKAAVGDNLFTTQANLTKSVLDQTVLKEAESRFEATVLKPFIEARQKALAEHQAHQKVLEEQRQKQLEELKQKQKEAE | soluble
6 | MNKFLFAAALIVSGLLVGCNQLTQYTITEQEINQSLAKHNNFSKDIGLPGVADAHIVLTNLTSQIGREEPNKVTLTGDANLDMNSLFGSQKATMKLKLKALPVFDKEKGAIFLKEMEVVDATVQPEKMQTVMQTLLPYLNQALRNYFNQQPAYVLREDGSQGEAMAKKLAKGIEVKPGEIVIPFTD | not soluble
7 | MGSDKIHHHHHHMETVYFKTLLAVVETGSFSRAAERLCITQSAVSQRIKLLEGRYGYTLIDRAGNFLVPTAAGELVIQKARVIIEHELALLGALKLLPAKTVISFCCSPCFGTVFLPALVRDFVLRNSEQIDFRCVLGSSQGAVRGLRDTDFNIIVIEHCTPLDLSPYDVISLPNDEIIFVSNPATGLDVPEPDLSQLLNLPVIMRKEGCSGTEQLAANLARFGKVLEDFRSVTGLDDPRLIVQTVKTEPYLAFVPKSLVLKELAEGSLRAHTVKGFSHARFRSLVTAPKRYSDPCRSNFIKAVMETVCHISAVSMPGDGPGSRWHKKRPSGRRAPLNSAVTNNAAI | not soluble
8 | MTEGLAVELAGLRSFSIVMPAYNVVTQRGERIFRETLESIAASCRYLQQHFPYTPEGELILISDGSTDRTCDVAMAGWPNAVPLQLVGLPTNVGIAAARNIGVRLAKGEVIFFCDADDLYRPEHLFLALSVLNQPLPEPYAPAYFGAVRTGVYCRDRLHPYWHKSLEQTLVLNLAVRREVHEFIGGFPEDEVFRQFRYGAEDVAYAYWLHQFCHTARLEQRTVEYRRFPNSVFDRQLKKFQAAPGTVADDLDEGDRQQEAQIRQIMATRLQELQAKAAQGVALEHHHHHH | not soluble
9 | MTFQETISAYIQERYQITPDFPFKKHPDYLVFRHPRNAKWFALIMPLDAQLLGATENKQLTILTVKLAPELIALLKNQPGYFPAYHMNKEHWLSLSEEIPLSQVFSFIDESYQRSYLEHHHHHH | soluble
10 | MGSDKIHHHHHHMPLKTPPCVRRHTTGHETCSAQRSEHDGRRHLFPHDARALEIQERDVTHPIVSSEVPVEYINLPEPQTEGGMPLMTALHKRRSVRSFAQRPLDEALLSTLLWAAFGINRPDTGLRTAPSARNWQEIDVYVAMPDGLYALEPAAWRLRLVTGEDLRAATGLQDYVSTAPLDLVYVSRLSKLDETDKPMRQFYTALDTGYISQNVYLFCAASGLATVARGLLDRRALAKAMRLDPDQRVVLAQSVGFPA | not soluble
11 | MGSDKIHHHHHHMWAYESVFYQIYPLGFCGAPFENDGVLEHRILKVNDWIPHIKKLGADAIYFSPVFESDTHGYNTRDYTKIDTRLGTNEDFAQVCDNLHKDGIKVVLDGVFNHVGRGFWAFQDVLKNRESSPYVNWFGRIAFDGNSNYNDGLWYEGWEGNYDLVKLNLRNEDVIQHIFSAIKGWVDEFDIDGLRLDVAYCLDHDFLRRLREFCDSLKPDFFLVGETLHGDYNQIMNDAMLHSVTNYECYKGLYSSFNSMNMFEINHSLLRQFGPEQWTLYKGKHLLSFVDNHDVTRVASILTNEKHLPLIYALAFGMPGIPCVYYGSEWGEKAKKEDGDPALRACFEAPQCNELTEWISKLAEAKKQSKALCYGNFYSVVLTNGQCVFGRECDGEKVFVCINAADQPFFAGFDMGKGDATDLITGEQVTLNGGLELPPYSAYFLR | not soluble
12 | MHTDTTRENPQASAPQAADSSQDLAATAPGQLRVIKRNGTVVPYTDDKITVAITKAFLAVEGGTAAASSRIHDTVRRLTEQVTATFKRRMPSGGTIHIEEIQDQVELALMRAGEQKVARDYVIYREARAAERKNAGAASDVAQPHP | not soluble
13 | MSLTQMPNVHDAEPIPEAARAEIDRLLLSGDLFRYTAPQDAPVALLEREFAALLGTKYALAVSSCSAALFLSLKALDLPRDARVLIPGFTFAAVPSSVVHADCVPVLCEVGENYRIDMADFKARLDDVQAVIVSHMRGHTSDMDAILSLCAARDIPVVEDAAHSLGTLWHGEKIGTLGRVGCFSFQSYKMVNAGEGGILVTDDADLVARAVIMSGAYEHNWAKHVDGDDPALSEAFARWQNKLPLYNLRLSNLSAAVIRPQLPLLAERVRRGLENHDYVADKLNSSPVLSVPAPLVAETRAPDSIQFNLVGLSDDEVTRFAEAAAARGIKVQIFGKSADNARAFWNWQFLPGGAPELPRTRDMLMRACDVRLPVRLTRDELDLIANALLAAAAEVQGPLRVYGTEGHHHHHH | soluble
14 | MKVAIVHNSEEKSKQVTKQLTTLLEQNQIQIDNRQPELVISVGGDGTLLSAFHRFNHLLNEVSFLGVHTGHLGFYTDWRDYELKELVESLCIHREKSTSYPLLDVRIRFRDGKPDKHFLALNESTIKRGNRTMVGDVFIKDELFERFRGDGLSISTPTGSTAYNKSIGGAVLHPSINAFQLTEIASLNNRVFRTLGSPIVIAHTEWLEIKLQESDDYFVTVDQLDIYQENIASVCYRIADERIHFASYRHMHFWHRVKDAFIGED | not soluble
15 | MSLKFHSPYLPLIKLIIVVKTPLELITDNLLPTIKVLIAKKLRELGMSQNRIAILLGVTQPAVKQYLDEDENFQYEKLRELGLKDEEIEDITQDLVNILNKNDTKSAMYYITDIGLRYLSELKFCKFHKENDKYIPQDCDICRYIYRQNEEERMEIALSMLQNEFVTPLIPEVLSNLAFARKNPKGINDVLAVEGRITKVKGIPTPASNPSWGSSKHLATILLKIMQKDPSIRSIMNIKYDKKIDEALHFLNFRIVYVGPSDENDDESISNLIYSAFYSGIDCVVHLGGKGLEPITYVLGKDPVEVVKKVIEIGKKYRELTENEGHHHHHH | soluble
16 | MAKVIFDENRCKGCKLCTTVCPKKIVVMNEDKLNQKGFHPAGVVDMDKCIGCAFCATICPDCVIEVYK | not soluble
17 | SNAMKLMDVHVLFSGGKDSSLSAVILKKLGYNPHLITINFGVIPSYKLAEETAKILGFKHKVITLDRKIVEKAADMIIEHKYPGPAIQYVHKTVLEILADEYSILADGTRRDDRVPKLSYSEIQSLEMRKNIQYITPLMGFGYKTLRHLASEFFILEEIKSGTKLSSDYEAEIRHILKERGESPEKYFPEHKQTRVVGLKKEI | soluble
